The results in this text go back to patent US20110243928A1.

For test [1], the target named is Negative control 20 mer peptide (Mimotopes). As to the kind of experiment: 16 mer peptide ELISA control well, control antibody diluted 4-fold.
Test [2] has as its target Positive control 20 mer peptide (Mimotopes). Described as above.
For test [3], the target named is Negative control 20 mer peptide (Mimotopes). The experiment in a line: 16 mer peptide ELISA control well, control antibody diluted 16-fold.
In test [4] the target is Positive control 20 mer peptide (Mimotopes). The test is described as above.
Test [5] has as its target Negative control 20 mer peptide (Mimotopes). As to the kind of experiment: 16 mer peptide ELISA control well, control antibody diluted 32-fold.
For test [6], the target named is Positive control 20 mer peptide (Mimotopes). Described as above.

Where “and” joins values, the source holds several entries; their conditions need not be identical. Equal values may be shown once.

For “Control Ab (Supplied with Mimotopes custom order) (antibody)”, the absorbance at 490 nm in test [1] is 0.077 A490 and 0.072 A490; in test [2], 1.5 A490 and 1.55 A490; in test [3], 0.08 A490 and 0.082 A490; in test [4] it was 1.2 A490 and 1.21 A490; in test [5], 0.072 A490 and 0.103 A490; in test [6], 0.739 A490 and 0.976 A490.
